In paper PMC11532998:
Several values for one entry are separate records, joined by “and”; a condition that tells them apart may be missing. Equal values may be shown once.

Experiments:
[1] = target: NfsB with C-terminal encapsulin localization sequence (cargo of Enc{NfsB}) (E. coli | M. smegmatis)
[2] = target: T1, encapsulin from Mycobacterium smegmatis (UniProt ID: I7G8Y9), C-terminal Strep-tag (Mycobacterium smegmatis mc2 155); assay: cryo-EM structure; same data set of purified Enc{tdNfsB}; the shell was subtracted from the particles, 2-D classification and low-resolution 3-D reconstruction of the interior; cargo and shell co-expressed in E. coli
[3] = target: T1, encapsulin from Mycobacterium smegmatis; assay: SDS-PAGE gel densitometry of the co-purified complex; Enc{tdNfsB} at 500 ug/mL on a 15% gel, Coomassie; calibration curves of Enc and tdNfsB; molar ratio of tdNfsB (52.3 kDa) to Enc shell (1804.2 kDa); repeated twice

| conversion of caged-hydroxy-CBT after 60 min by Enc{NfsB} (coupled luciferase assay), against 50% for free NfsB and tdNfsB and a comparable conversion for Enc{tdNfsB} [1] | stoichiometry N (tdNfsB per capsid) [2] | stoichiometry N (tdNfsB units per shell) [3] | Substance |
| --- | --- | --- | --- |
| 10% | – | – | NfsB with C-terminal encapsulin localization sequence (cargo of Enc{NfsB}) (enzyme) |
| – | 6 | 10 and 13 | tandem NfsB with C-terminal encapsulin localization sequence (cargo of Enc{tdNfsB}) (enzyme) |
